Results reported in patent US20200247894A1.
Numbering of substitutions follows the chain as printed. Values belong to the binder of their own block, whether it stands above or below them.

Assays:
[1] = molecular target: Human IL2Rγ extracellular domain expressed with a C-terminal mouse IgG2a Fc tag (human); assay: SPR Biacore 4000, anti-hFc-captured mAb, 25 C
[2] = molecular target: Human IL2Rγ extracellular domain expressed with a C-terminal mouse IgG2a Fc tag (human); assay: SPR Biacore 4000, anti-hFc-captured mAb, 37 C
[3] = molecular target: human IL2Rγ (endogenously expressed on cells) (human) (UniProt P31785); assay: cell-based or functional assay
human IL2Rγ (endogenously expressed on cells) (human), sequence (P31785 23-369): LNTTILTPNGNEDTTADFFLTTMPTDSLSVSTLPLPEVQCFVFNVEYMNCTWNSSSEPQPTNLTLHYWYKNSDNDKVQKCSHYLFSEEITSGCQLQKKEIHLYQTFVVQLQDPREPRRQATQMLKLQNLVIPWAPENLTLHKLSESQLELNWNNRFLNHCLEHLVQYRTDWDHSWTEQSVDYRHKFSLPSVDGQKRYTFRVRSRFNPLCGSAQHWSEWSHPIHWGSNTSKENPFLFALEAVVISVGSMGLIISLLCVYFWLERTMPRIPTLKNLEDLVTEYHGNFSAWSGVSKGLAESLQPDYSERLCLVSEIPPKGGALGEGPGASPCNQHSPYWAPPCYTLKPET

Human IL2Rγ extracellular domain expressed with a C-terminal mouse IgG2a Fc tag (human), sequence (chain, as listed by the source limits assumed): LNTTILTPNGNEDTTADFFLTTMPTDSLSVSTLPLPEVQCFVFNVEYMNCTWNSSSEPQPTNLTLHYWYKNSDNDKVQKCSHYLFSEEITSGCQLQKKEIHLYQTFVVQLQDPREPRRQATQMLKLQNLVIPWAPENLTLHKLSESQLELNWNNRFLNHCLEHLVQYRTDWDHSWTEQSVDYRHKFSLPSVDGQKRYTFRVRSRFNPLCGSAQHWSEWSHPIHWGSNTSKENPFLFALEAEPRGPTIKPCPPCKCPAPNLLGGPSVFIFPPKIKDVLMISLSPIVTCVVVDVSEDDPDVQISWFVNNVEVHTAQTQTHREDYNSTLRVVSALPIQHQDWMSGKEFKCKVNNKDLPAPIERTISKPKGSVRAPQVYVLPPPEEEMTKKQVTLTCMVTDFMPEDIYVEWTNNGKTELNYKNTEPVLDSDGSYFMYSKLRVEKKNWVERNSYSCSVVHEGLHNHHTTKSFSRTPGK

- 50 nM Ag Bound [1]: 1 RU
- 50 nM Ag Bound [2]: 2 RU
B1: H4H12899P (antibody, human IgG4 S228P, kappa, V domains shown)
VH: QVQLVESGGDLVKPGGSLRLSCATSGFTFSDFYMTWIRQAPGKGLEWISYISNSGSIVKYADSVKGRFTISRDNAKNSLYLQMNSLRAEDTAIYYCARFYGDRWGQGTLVTVSS
VL: DIQLTQSPSFLSASVGDRVTITCWASQGISTFLAWYQQKPGKAPKLLIYAASTLQSGVPSRFSGSGSGTDFTLTISSLQPEDFATYHCQQLNNYPWTFGQGTKVEIKR

- 50 nM Ag Bound [1]: 4 RU
- 50 nM Ag Bound [2]: 4 RU
B2: H4H12900P (antibody, human IgG4 S228P, kappa, V domains shown)
VH: QVQLVESGGGLVKPGGSLRLSCEASGFTFNDFYMTWIRQAPGKGLEWIAYISKSGDKMRYADSVKGRFSTSRDNAKNSLSLQMNSLRAEDTAVYYCARFYGDIWGQGTLVTVSS
VL: B1 VL with G28D, T31S, A34V, K45N, T53A, D70E, T85S, H87Y, Q89E

- EC50; IL-7 dose response; NK92/hIL7R/STAT3-luc [3]: 39 pM
B3: human IL-7 (ligand, UniProt P13232 26-177, looked up)
chain: DCDIEGKDGKQYESVLMVSIDQLLDSMKEIGSNCLNNEFNFFKRHICDANKEGMFLFRAARKLRQFLKMNSTGDFDLHLLKVSEGTTILLNCTGQVKGRKPAALGEAQPTKSLEENKSLKEQKKLNDLCFLKRLLQEIKTCWNKILMGTKEH
